Data published in patent publication US20220089704A1 (Biogen, published 2022).

B1: FC5-H62(T33C/A104C)-12F4(LC) hIgG1 (bispecific antibody)
heavy: not shown
light: DVQLVESGGGLVQPGGSLRLSCAASGFKITHYCTGWFRQAPGKEREFVSRITWGGDNTFYSNSVKGRFTISRDNSKNTVYLQMNSLRAEDTAVYYCAAGSTSTCTPLRVDYWGQGTLVTVSSGGGGSSYELTQPPSVSVSPGQTARITCSGEALPMQFAHWYQQRPGKAPVIVVYKDSERPSGVPERFSGSSSGTTATLTITGVQAEDEADYYCQSPDSTNTYEVFGGGTKLTVLSQPKAAPSVTLFPPSSEELQANKATLVCLISDFYPGAVTVAWKADSSPVKAGVETTTPSKQSNNKYAASSYLSLTPEQWKSHRSYSCQVTHEGSTVEKTVAPTECS
notes: also called hFC5.2-12F4(LC) hIgG1; FC5-H62(T33C/A104C)-12F4 hIgG1
B2: FC5-H62(T33C/A104C)-12F4(LC) hIgG2 SAA (bispecific antibody)
heavy: EVQLVESGGGLVEPGGSLRLSCAVSGFDFEKAWMSWVRQAPGQGLQWVARIKSTADGGTTSYAAPVEGRFIISRDDSRNMLYLQMNSLKTEDTAVYYCTSAHWGQGTLVTVSSASTKGPSVFPLAPCSRSTSESTAALGCLVKDYFPEPVTVSWNSGALTSGVHTFPAVLQSSGLYSLSSVVTVPSSNFGTQTYTCNVDHKPSNTKVDKTVERKSCVECPPCPAPPAAAPSVFLFPPKPKDTLMISRTPEVTCVVVDVSHEDPEVQFNWYVDGVEVHNAKTKPREEQFNSTFRVVSVLTVVHQDWLNGKEYKCKVSNKGLPAPIEKTISKTKGQPREPQVYTLPPSREEMTKNQVSLTCLVKGFYPSDIAVEWESNGQPENNYKTTPPMLDSDGSFFLYSKLTVDKSRWQQGNVFSCSVMHEALHNHYTQKSLSLSPG
light: DVQLVESGGGLVQPGGSLRLSCAASGFKITHYCTGWFRQAPGKEREFVSRITWGGDNTFYSNSVKGRFTISRDNSKNTVYLQMNSLRAEDTAVYYCAAGSTSTCTPLRVDYWGQGTLVTVSSGGGGSSYELTQPPSVSVSPGQTARITCSGEALPMQFAHWYQQRPGKAPVIVVYKDSERPSGVPERFSGSSSGTTATLTITGVQAEDEADYYCQSPDSTNTYEVFGGGTKLTVLSQPKAAPSVTLFPPSSEELQANKATLVCLISDFYPGAVTVAWKADSSPVKAGVETTTPSKQSNNKYAASSYLSLTPEQWKSHRSYSCQVTHEGSTVEKTVAPTECS
B3: FC5-H62(T33C/A104C)-12F4(LC) hIgG4P/G1 agly (bispecific antibody)
heavy: EVQLVESGGGLVEPGGSLRLSCAVSGFDFEKAWMSWVRQAPGQGLQWVARIKSTADGGTTSYAAPVEGRFIISRDDSRNMLYLQMNSLKTEDTAVYYCTSAHWGQGTLVTVSSASTKGPSVFPLAPCSRSTSESTAALGCLVKDYFPEPVTVSWNSGALTSGVHTFPAVLQSSGLYSLSSVVTVPSSSLGTKTYTCNVDHKPSNTKVDKRVESKYGPPCPPCPAPEFLGGPSVFLFPPKPKDTLMISRTPEVTCVVVDVSQEDPEVQFNWYVDGVEVHNAKTKPREEQFQSTYRVVSVLTVLHQDWLNGKEYKCKVSNKGLPSSIEKTISKAKGQPREPQVYTLPPSRDELTKNQVSLTCLVKGFYPSDIAVEWESNGQPENNYKTTPPVLDSDGSFFLYSKLTVDKSRWQQGNVFSCSVMHEALHNHYTQKSLSLSPG
light: DVQLVESGGGLVQPGGSLRLSCAASGFKITHYCTGWFRQAPGKEREFVSRITWGGDNTFYSNSVKGRFTISRDNSKNTVYLQMNSLRAEDTAVYYCAAGSTSTCTPLRVDYWGQGTLVTVSSGGGGSSYELTQPPSVSVSPGQTARITCSGEALPMQFAHWYQQRPGKAPVIVVYKDSERPSGVPERFSGSSSGTTATLTITGVQAEDEADYYCQSPDSTNTYEVFGGGTKLTVLSQPKAAPSVTLFPPSSEELQANKATLVCLISDFYPGAVTVAWKADSSPVKAGVETTTPSKQSNNKYAASSYLSLTPEQWKSHRSYSCQVTHEGSTVEKTVAPTECS
B4: FC5-H62(T33C/A104C)-12F4(LC) hIgG1 agly (N297Q) (bispecific antibody)
heavy: not shown
light: DVQLVESGGGLVQPGGSLRLSCAASGFKITHYCTGWFRQAPGKEREFVSRITWGGDNTFYSNSVKGRFTISRDNSKNTVYLQMNSLRAEDTAVYYCAAGSTSTCTPLRVDYWGQGTLVTVSSGGGGSSYELTQPPSVSVSPGQTARITCSGEALPMQFAHWYQQRPGKAPVIVVYKDSERPSGVPERFSGSSSGTTATLTITGVQAEDEADYYCQSPDSTNTYEVFGGGTKLTVLSQPKAAPSVTLFPPSSEELQANKATLVCLISDFYPGAVTVAWKADSSPVKAGVETTTPSKQSNNKYAASSYLSLTPEQWKSHRSYSCQVTHEGSTVEKTVAPTECS
notes: also called FC5-H62(T33C/A104C)-12F4 hIgG1 agly
B5: 12F4 hIgG1 (antibody, V domains shown)
VH: EVQLVESGGGLVEPGGSLRLSCAVSGFDFEKAWMSWVRQAPGQGLQWVARIKSTADGGTTSYAAPVEGRFIISRDDSRNMLYLQMNSLKTEDTAVYYCTSAHWGQGTLVTVSS
VL: SYELTQPPSVSVSPGQTARITCSGEALPMQFAHWYQQRPGKAPVIVVYKDSERPSGVPERFSGSSSGTTATLTITGVQAEDEADYYCQSPDSTNTYEVFGGGTKLTVLS
notes: also called anti-alpha synuclein (12F4); 12F4 without FC5 attached

Assays:
Human alpha-synuclein [1] = target: T1, Human alpha-synuclein (human, UniProt P37840 1-140); test: direct binding ELISA, plates coated with human alpha-synuclein, anti-hIgG-HRP detection
Excerpt: (§1) FIG. 46A is a graph showing alpha-synuclein direct binding ELISA. Human alpha-synuclein was coated on ELISA plates, treated with several dilutions of test reagents, and antibody binding at the indicated concentrations was detected with an HRP conjugated anti-hIgG secondary, measured by absorbance at 450 nm.

Human alpha-synuclein [2] = target: T1, Human alpha-synuclein; test: direct binding ELISA, plates coated with human alpha-synuclein; 12F4 hIgG1 as reference
Excerpt: as §1

| Binder | binding result (Human alpha-synuclein [1]) | binding result (Human alpha-synuclein [2]) |
| --- | --- | --- |
| B1 | binds | – |
| B2 | binds | – |
| B3 | binds | – |
| B4 | binds | – |
| B5 | – | binds |
